Paper PMC5714209

Target: A3B 193 CTD (human) (UniProt Q9UH17)
Assay: SEC

stoichiometry N: 2
Substance: A3B 193 CTD (from UniProt Q9UH17 193-382) (domain or fragment)
